Source: IntAct's records for PubMed 17280616

B1: Maternal embryonic leucine zipper kinase (Homo sapiens), Q14680 (parent)
chain: MKDYDELLKYYELHETIGTGGFAKVKLACHILTGEMVAIKIMDKNTLGSDLPRIKTEIEALKNLRHQHICQLYHVLETANKIFMVLEYCPGGELFDYIISQDRLSEEETRVVFRQIVSAVAYVHSQGYAHRDLKPENLLFDEYHKLKLIDFGLCAKPKGNKDYHLQTCCGSLAYAAPELIQGKSYLGSEADVWSMGILLYVLMCGFLPFDDDNVMALYKKIMRGKYDVPKWLSPSSILLLQQMLQVDPKKRISMKNLLNHPWIMQDYNYPVEWQSKNPFIHLDDDCVTELSVHHRNNRQTMEDLISLWQYDHLTATYLLLLAKKARGKPVRLRLSSFSCGQASATPFTDIKSNNWSLEDVTASDKNYVAGLIDYDWCEDDLSTGAATPRTSQFTKYWTESNGVESKSLTPALCRTPANKLKNKENVYTPKSAVKNEEYFMFPEPKTPVNKNQHKREILTTPNRYTTPSKARNQCLKETPIKIPVNSTGTDKLMTGVISPERRCRSVELDLNQAHMEETPKRKGAKVFGSLERGLDKVITVLTRSKRKGSARDGPRRLKLHYNVTTTRLVNPDQLLNEIMSILPKKHVDFVQKGYTLKCQTQSDFGKVTMQFELEVCQLQKPDVVGIRRQRLKGDAWVYKRLVEDILSSCKV

Variants of: B1
Conditions: with BCL2L14, Q9BZR8
Sequence of BCL2L14, Q9BZR8 (Q9BZR8 whole entry): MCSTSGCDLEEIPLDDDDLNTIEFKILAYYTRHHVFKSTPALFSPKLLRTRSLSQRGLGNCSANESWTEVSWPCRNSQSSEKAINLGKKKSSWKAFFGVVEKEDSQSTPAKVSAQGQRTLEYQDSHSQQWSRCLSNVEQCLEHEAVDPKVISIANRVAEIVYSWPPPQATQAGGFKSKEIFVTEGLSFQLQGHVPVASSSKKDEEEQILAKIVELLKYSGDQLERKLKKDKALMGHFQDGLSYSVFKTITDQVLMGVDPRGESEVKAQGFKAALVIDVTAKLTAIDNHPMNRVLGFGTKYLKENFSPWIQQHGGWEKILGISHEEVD

Row | Variant | effect of a mutation on the interaction
1 | D150A | disrupting interaction
